Measurements published in paper PMC2767265 (Nature structural & molecular biology, 2008).
Like-named read-outs stand apart in the source and are kept apart here.

T1: Ffh (E. coli SRP protein), wild type (E. coli, UniProt P0AGD7 1-453)
T1 sequence (looked up): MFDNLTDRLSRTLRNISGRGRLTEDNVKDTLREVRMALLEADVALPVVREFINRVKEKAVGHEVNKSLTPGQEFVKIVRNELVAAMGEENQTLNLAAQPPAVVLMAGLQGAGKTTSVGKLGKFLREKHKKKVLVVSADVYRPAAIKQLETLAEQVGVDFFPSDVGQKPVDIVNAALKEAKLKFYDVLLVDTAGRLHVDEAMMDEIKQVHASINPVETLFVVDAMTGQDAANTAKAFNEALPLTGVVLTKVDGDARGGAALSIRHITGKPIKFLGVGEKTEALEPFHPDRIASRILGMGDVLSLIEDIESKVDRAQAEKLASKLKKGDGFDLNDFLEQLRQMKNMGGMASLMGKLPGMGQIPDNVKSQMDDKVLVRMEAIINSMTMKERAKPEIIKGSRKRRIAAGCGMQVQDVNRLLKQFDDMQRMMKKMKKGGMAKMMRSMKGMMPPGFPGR

B1: FtsYΔN1 (FtsY residues 221-497, lacks the A domain and the first helix of the N domain) (domain or fragment, E. coli, UniProt P10121 221-497, looked up)
chain: KKIDDDLFEELEEQLLIADVGVETTRKIITNLTEGASRKQLRDAEALYGLLKEEMGEILAKVDEPLNVEGKAPFVILMVGVNGVGKTTTIGKLARQFEQQGKSVMLAAGDTFRAAAVEQLQVWGQRNNIPVIAQHTGADSASVIFDAIQAAKARNIDVLIADTAGRLQNKSHLMEELKKIVRVMKKLDVEAPHEVMLTIDASTGQNAVSQAKLFHEAVGLTGITLTKLDGTAKGGVIFSVADQFGIPIRYIGVGERIEDLRPFKADDFIEALFARED
B2: FtsY lacking the first 46 amino acids of the A domain (wild-type reference) (domain or fragment, E. coli, UniProt P10121 47-497, looked up)
chain: ASEQAVEEQPQAHTEAEAETFAADVVEVTEQVAESEKAQPEAEVVAQPEPVVEETPEPVAIEREELPLPEDVNAEAVSPEEWQAEAETVEIVEAAEEEAAKEEITDEELETALAAEAAEEAVMVVPPAEEEQPVEEIAQEQEKPTKEGFFARLKRSLLKTKENLGSGFISLFRGKKIDDDLFEELEEQLLIADVGVETTRKIITNLTEGASRKQLRDAEALYGLLKEEMGEILAKVDEPLNVEGKAPFVILMVGVNGVGKTTTIGKLARQFEQQGKSVMLAAGDTFRAAAVEQLQVWGQRNNIPVIAQHTGADSASVIFDAIQAAKARNIDVLIADTAGRLQNKSHLMEELKKIVRVMKKLDVEAPHEVMLTIDASTGQNAVSQAKLFHEAVGLTGITLTKLDGTAKGGVIFSVADQFGIPIRYIGVGERIEDLRPFKADDFIEALFARED
B3: FtsY204 (FtsY residues 204-497, includes helix N1) (domain or fragment, E. coli, UniProt P10121 204-497, looked up)
chain: LKTKENLGSGFISLFRGKKIDDDLFEELEEQLLIADVGVETTRKIITNLTEGASRKQLRDAEALYGLLKEEMGEILAKVDEPLNVEGKAPFVILMVGVNGVGKTTTIGKLARQFEQQGKSVMLAAGDTFRAAAVEQLQVWGQRNNIPVIAQHTGADSASVIFDAIQAAKARNIDVLIADTAGRLQNKSHLMEELKKIVRVMKKLDVEAPHEVMLTIDASTGQNAVSQAKLFHEAVGLTGITLTKLDGTAKGGVIFSVADQFGIPIRYIGVGERIEDLRPFKADDFIEALFARED
modifications: for NMR: 13C on the methyl groups of isoleucine, leucine and valine

Assays:
Assay in all cases: other fluorescence titration
[1] = molecular target: T1, Ffh (E. coli SRP protein), wild type
[2] = molecular target: T1, Ffh (E. coli SRP protein), wild type; remark: listed apart in the source
[3] = molecular target: T1, Ffh (E. coli SRP protein), wild type; remark: listed apart in the source

| Binder | Kd [1] | koff [1] | kon [1] | Kd [2] | koff [2] | kon [2] | binding result [3] |
| --- | --- | --- | --- | --- | --- | --- | --- |
| B1 | 14.9 ± 2.1 nM | 0.000605 s⁻¹ | 40500 M⁻¹ s⁻¹ | 7.98 ± 1.1 nM | 5.47e-06 s⁻¹ | 685 M⁻¹ s⁻¹ |  |
| B2 | 68.4 ± 4.2 nM | 0.00265 s⁻¹ | 38800 M⁻¹ s⁻¹ | 82.7 ± 13 nM | 8.6e-06 s⁻¹ | 104 M⁻¹ s⁻¹ |  |
| B3 |  |  |  |  |  |  | binds |
